B1: Pre-mRNA-splicing factor CWC22 homolog (Homo sapiens), Q9HCG8 (parent)
chain: MKSSVAQIKPSSGHDRRENLNSYQRNSSPEDRYEEQERSPRDRDYFDYSRSDYEHSRRGRSYDSSMESRNRDREKRRERERDTDRKRSRKSPSPGRRNPETSVTQSSSAQDEPATKKKKDELDPLLTRTGGAYIPPAKLRMMQEQITDKNSLAYQRMSWEALKKSINGLINKVNISNISIIIQELLQENIVRGRGLLSRSVLQAQSASPIFTHVYAALVAIINSKFPQIGELILKRLILNFRKGYRRNDKQLCLTASKFVAHLINQNVAHEVLCLEMLTLLLERPTDDSVEVAIGFLKECGLKLTQVSPRGINAIFERLRNILHESEIDKRVQYMIEVMFAVRKDGFKDHPIILEGLDLVEEDDQFTHMLPLEDDYNPEDVLNVFKMDPNFMENEEKYKAIKKEILDEGDTDSNTDQDAGSSEEDEEEEEEEGEEDEEGQKVTIHDKTEINLVSFRRTIYLAIQSSLDFEECAHKLLKMEFPESQTKELCNMILDCCAQQRTYEKFFGLLAGRFCMLKKEYMESFEGIFKEQYDTIHRLETNKLRNVAKMFAHLLYTDSLPWSVLECIKLSEETTTSSSRIFVKIFFQELCEYMGLPKLNARLKDETLQPFFEGLLPRDNPRNTRFAINFFTSIGLGGLTDELREHLKNTPKVIVAQKPDVEQNKSSPSSSSSASSSSESDSSDSDSDSSDSSSESSSEESDSSSISSHSSASANDVRKKGHGKTRSKEVDKLIRNQQTNDRKQKERRQEHGHQETRTERERRSEKHRDQNSSGSNWRDPITKYTSDKDVPSERNNYSRVANDRDQEMHIDLENKHGDPKKKRGERRNSFSENEKHTHRIKDSENFRRKDRSKSKEMNRKHSGSRSDEDRYQNGAERRWEKSSRYSEQSRESKKNQDRRREKSPAKQK

Variants of: B1
Conditions: with if4a3_human EIF4A3, P38919
Sequence of if4a3_human EIF4A3, P38919 (P38919 whole entry): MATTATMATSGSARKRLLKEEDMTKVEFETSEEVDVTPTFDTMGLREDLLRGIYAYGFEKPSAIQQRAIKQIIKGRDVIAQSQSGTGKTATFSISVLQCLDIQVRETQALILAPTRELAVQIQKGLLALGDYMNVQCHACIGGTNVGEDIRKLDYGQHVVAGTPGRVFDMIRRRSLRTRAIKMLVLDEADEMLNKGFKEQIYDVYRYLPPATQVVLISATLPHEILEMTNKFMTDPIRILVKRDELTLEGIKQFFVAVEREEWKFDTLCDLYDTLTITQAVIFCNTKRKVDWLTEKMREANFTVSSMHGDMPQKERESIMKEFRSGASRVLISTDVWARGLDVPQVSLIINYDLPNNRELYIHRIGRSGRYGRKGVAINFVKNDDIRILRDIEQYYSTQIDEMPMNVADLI

Variant	effect of a mutation on the interaction
N171A;K172A;N174A	disrupting interaction strength
R331A;Y334A	decreasing interaction strength
